The results in this text go back to patent publication US12698507B2, “Methods and compositions for conferring and/or enhancing herbicide tolerance using protoporphyrinogen IX oxidase of various cyanobacteria or variant thereof” (FarmHannong Co., Ltd., priority 2019, dated 2026).

B1: CyPPO19 R89A + A167C + I408R + F360M: variant of CyPPO19 PPO protein (SEQ ID NO: 1) (protein)
chain: MSEVDVAIVGGGLSGLSLAWRLQQSAPQYSVVLLEASDRLGGNITTQTAEGFVWELGPNSFAPTPALLQLIAEVGLQSELIRGDRHLPAYIYWRGQLYPLQPTRPLALATSNLLSPWGKVRAALGALGFVPPYLGSGDESVNSFFRRHLGQEVAERLVAPFVSGVYCGDPQQLSAAAAFRRIAQLEKLGGGLIAGALHLRRQQAPKPKPPTSVQMRPGELGSFKEGLAALPRAIAQQLKAPIHLQTPVQEITPDPKGGYLLRSGEQTWRARSVVLATPAYQTAELVAPFQPAIARVLATIPYPTVACVVLAYPAGLGRSVRPGFGVLIPRSQGIRTLGTIWSSCLFPQRTPAGWQVFTSMIGGATDPDLASLSEEAIVQQVQQDLNRLLDLPAAKARLLGMKVWRRARPQYMVGYPEQWQQVTHALSQTPGLFLCSNYAEGVALGDRVEHGNRTAAAVAAYLSGGQP
modifications: Synthetic_PPO of Thermosynechococcus elongatus PKUAC-SCTE542 (comprising GenBank No. CP032152.1)
B2: CyPPO19 V165C + A167C + I408W + F360T: variant of CyPPO19 PPO protein (SEQ ID NO: 1) (protein)
chain: MSEVDVAIVGGGLSGLSLAWRLQQSAPQYSVVLLEASDRLGGNITTQTAEGFVWELGPNSFAPTPALLQLIAEVGLQSELIRGDRHLPRYIYWRGQLYPLQPTRPLALATSNLLSPWGKVRAALGALGFVPPYLGSGDESVNSFFRRHLGQEVAERLVAPFVSGCYCGDPQQLSAAAAFRRIAQLEKLGGGLIAGALHLRRQQAPKPKPPTSVQMRPGELGSFKEGLAALPRAIAQQLKAPIHLQTPVQEITPDPKGGYLLRSGEQTWRARSVVLATPAYQTAELVAPFQPAIARVLATIPYPTVACVVLAYPAGLGRSVRPGFGVLIPRSQGIRTLGTIWSSCLFPQRTPAGWQVFTSTIGGATDPDLASLSEEAIVQQVQQDLNRLLDLPAAKARLLGMKVWRRAWPQYMVGYPEQWQQVTHALSQTPGLFLCSNYAEGVALGDRVEHGNRTAAAVAAYLSGGQP
modifications: Synthetic_PPO of Thermosynechococcus elongatus PKUAC-SCTE542 (comprising GenBank No. CP032152.1)
B3: CyPPO19 V165S + A167C + L327T + F360M: variant of CyPPO19 PPO protein (SEQ ID NO: 1) (protein)
chain: MSEVDVAIVGGGLSGLSLAWRLQQSAPQYSVVLLEASDRLGGNITTQTAEGFVWELGPNSFAPTPALLQLIAEVGLQSELIRGDRHLPRYIYWRGQLYPLQPTRPLALATSNLLSPWGKVRAALGALGFVPPYLGSGDESVNSFFRRHLGQEVAERLVAPFVSGSYCGDPQQLSAAAAFRRIAQLEKLGGGLIAGALHLRRQQAPKPKPPTSVQMRPGELGSFKEGLAALPRAIAQQLKAPIHLQTPVQEITPDPKGGYLLRSGEQTWRARSVVLATPAYQTAELVAPFQPAIARVLATIPYPTVACVVLAYPAGLGRSVRPGFGVTIPRSQGIRTLGTIWSSCLFPQRTPAGWQVFTSMIGGATDPDLASLSEEAIVQQVQQDLNRLLDLPAAKARLLGMKVWRRAIPQYMVGYPEQWQQVTHALSQTPGLFLCSNYAEGVALGDRVEHGNRTAAAVAAYLSGGQP
modifications: Synthetic_PPO of Thermosynechococcus elongatus PKUAC-SCTE542 (comprising GenBank No. CP032152.1)
B4: CyPPO19 V165C + A167I + V305M + F360V: variant of CyPPO19 PPO protein (SEQ ID NO: 1) (protein)
chain: MSEVDVAIVGGGLSGLSLAWRLQQSAPQYSVVLLEASDRLGGNITTQTAEGFVWELGPNSFAPTPALLQLIAEVGLQSELIRGDRHLPRYIYWRGQLYPLQPTRPLALATSNLLSPWGKVRAALGALGFVPPYLGSGDESVNSFFRRHLGQEVAERLVAPFVSGCYIGDPQQLSAAAAFRRIAQLEKLGGGLIAGALHLRRQQAPKPKPPTSVQMRPGELGSFKEGLAALPRAIAQQLKAPIHLQTPVQEITPDPKGGYLLRSGEQTWRARSVVLATPAYQTAELVAPFQPAIARVLATIPYPTMACVVLAYPAGLGRSVRPGFGVLIPRSQGIRTLGTIWSSCLFPQRTPAGWQVFTSVIGGATDPDLASLSEEAIVQQVQQDLNRLLDLPAAKARLLGMKVWRRAIPQYMVGYPEQWQQVTHALSQTPGLFLCSNYAEGVALGDRVEHGNRTAAAVAAYLSGGQP
modifications: Synthetic_PPO of Thermosynechococcus elongatus PKUAC-SCTE542 (comprising GenBank No. CP032152.1)
B5: CyPPO19 V165S + F360V: variant of CyPPO19 PPO protein (SEQ ID NO: 1) (protein)
chain: MSEVDVAIVGGGLSGLSLAWRLQQSAPQYSVVLLEASDRLGGNITTQTAEGFVWELGPNSFAPTPALLQLIAEVGLQSELIRGDRHLPRYIYWRGQLYPLQPTRPLALATSNLLSPWGKVRAALGALGFVPPYLGSGDESVNSFFRRHLGQEVAERLVAPFVSGSYAGDPQQLSAAAAFRRIAQLEKLGGGLIAGALHLRRQQAPKPKPPTSVQMRPGELGSFKEGLAALPRAIAQQLKAPIHLQTPVQEITPDPKGGYLLRSGEQTWRARSVVLATPAYQTAELVAPFQPAIARVLATIPYPTVACVVLAYPAGLGRSVRPGFGVLIPRSQGIRTLGTIWSSCLFPQRTPAGWQVFTSVIGGATDPDLASLSEEAIVQQVQQDLNRLLDLPAAKARLLGMKVWRRAIPQYMVGYPEQWQQVTHALSQTPGLFLCSNYAEGVALGDRVEHGNRTAAAVAAYLSGGQP
modifications: Synthetic_PPO of Thermosynechococcus elongatus PKUAC-SCTE542 (comprising GenBank No. CP032152.1)

The assay deals with PPO-deficient BT3 E. coli (ΔPPO). Put plainly: PPO-inhibiting herbicide tolerance test of PPO variants in E. coli (growth on herbicide-containing LB agar). It counts as cell-based. The note with it: CyPPO19 variants in BT3 (ΔPPO) E. coli; LB agar with 0 to 2,000 μM herbicide, 37° C., dark, 16-20 hours. In outline:
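PPO-deficient BT3 E. coli expressing each variant from pET303 were diluted to OD600=0.5, then 10-fold serially, and spotted on LB-ampicillin agar with 0 to 2,000 μM herbicide. After 16-20 h at 37° C. in the dark, growth relative to wild type was scored from '−' (equivalent) to '+' per 10-fold resistance, max '+++++'.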
Turning to B1, the “tolerance level relative to wild type, Carfentrazone” value is listed as “+ (‘+’ per each 10-fold resistance)”; the “tolerance level relative to wild type, Flumioxazin” value is recorded as “++++ (‘+’ per each 10-fold resistance)”; the “tolerance level relative to wild type, Fomesafen” value is recorded as “++ (‘+’ per each 10-fold resistance)”; the “tolerance level relative to wild type, Oxyfluorfen” value is recorded as “++ (‘+’ per each 10-fold resistance)”. Besides, the “tolerance level relative to wild type, Saflufenacil” value is “+++ (‘+’ per each 10-fold resistance)”; the “tolerance level relative to wild type, Sulfentrazone” value is “++ (‘+’ per each 10-fold resistance)”; the “tolerance level relative to wild type, Tiafenacil” value is listed as “+++ (‘+’ per each 10-fold resistance)”.
As for B2, the “tolerance level relative to wild type, Carfentrazone” value is recorded as “+ (‘+’ per each 10-fold resistance)”; the “tolerance level relative to wild type, Flumioxazin” value was “++++ (‘+’ per each 10-fold resistance)”; the “tolerance level relative to wild type, Fomesafen” value is “++ (‘+’ per each 10-fold resistance)”; the “tolerance level relative to wild type, Oxyfluorfen” value is recorded as “++ (‘+’ per each 10-fold resistance)”. Moreover, the “tolerance level relative to wild type, Saflufenacil” value is “++++ (‘+’ per each 10-fold resistance)”; the “tolerance level relative to wild type, Sulfentrazone” value is recorded as “+++ (‘+’ per each 10-fold resistance)”; the “tolerance level relative to wild type, Tiafenacil” value is “++++ (‘+’ per each 10-fold resistance)”.
For B3, the “tolerance level relative to wild type, Carfentrazone” value is given as “+ (‘+’ per each 10-fold resistance)”; the “tolerance level relative to wild type, Flumioxazin” value is reported as “++++ (‘+’ per each 10-fold resistance)”; the “tolerance level relative to wild type, Fomesafen” value is reported as “++ (‘+’ per each 10-fold resistance)”; the “tolerance level relative to wild type, Oxyfluorfen” value is reported as “++ (‘+’ per each 10-fold resistance)”. In addition, the “tolerance level relative to wild type, Saflufenacil” value is “++++ (‘+’ per each 10-fold resistance)”; the “tolerance level relative to wild type, Sulfentrazone” value is recorded as “++++ (‘+’ per each 10-fold resistance)”; the “tolerance level relative to wild type, Tiafenacil” value is listed as “++++ (‘+’ per each 10-fold resistance)”.
With B4, the “tolerance level relative to wild type, Carfentrazone” value was “+ (‘+’ per each 10-fold resistance)”; the “tolerance level relative to wild type, Flumioxazin” value is given as “++ (‘+’ per each 10-fold resistance)”; the “tolerance level relative to wild type, Fomesafen” value was “+ (‘+’ per each 10-fold resistance)”; the “tolerance level relative to wild type, Oxyfluorfen” value is “+ (‘+’ per each 10-fold resistance)”. In addition, the “tolerance level relative to wild type, Saflufenacil” value was “++ (‘+’ per each 10-fold resistance)”; the “tolerance level relative to wild type, Sulfentrazone” value is “+ (‘+’ per each 10-fold resistance)”; the “tolerance level relative to wild type, Tiafenacil” value was “++ (‘+’ per each 10-fold resistance)”.
As for B5, the “tolerance level relative to wild type, Carfentrazone” value was “+ (‘+’ per each 10-fold resistance)”; the “tolerance level relative to wild type, Flumioxazin” value is listed as “++++ (‘+’ per each 10-fold resistance)”; the “tolerance level relative to wild type, Fomesafen” value is recorded as “+ (‘+’ per each 10-fold resistance)”; the “tolerance level relative to wild type, Oxyfluorfen” value is reported as “++ (‘+’ per each 10-fold resistance)”. Besides, the “tolerance level relative to wild type, Saflufenacil” value is listed as “++++ (‘+’ per each 10-fold resistance)”; the “tolerance level relative to wild type, Sulfentrazone” value is given as “++++ (‘+’ per each 10-fold resistance)”; the “tolerance level relative to wild type, Tiafenacil” value was “++++ (‘+’ per each 10-fold resistance)”.
